Laboratory results as given in the PETadex activity labels (doi:10.1016/j.ijbiomac.2025.149745).

B1: unnamed (protein)
chain: MNFPRASRLMQAAVLGGLMAVSAAATAQTNPYARGPNPTAASLEASAGPFTVRSFTVSRPSGYGAGTVYYPTNAGGTVGAIAIVPGYTARQSSIKWWGPRLASHGFVVITIDTNSTLDQPSSRSSQQMAALRQVASLNGTSSSPIYGKVDTARMGVMGHSMGGGGSLISAANNPSLKAAAPQAPWDSSTNFSSVTVPTLIFAAENDSIAPVNSSALPIYDSMSRNAKQFLEINGGSHFAANSGNSNQALIGKKGVAWMKRFMDNDTRYSTFACENPNSTRVSDFRTANCS
B2: unnamed (protein)
chain: MNFPRASRLMQAAVLGGLMAVSAAATAQTNPYARGPNPTAASLEASAGPFTVRSFTVSRPSGYGAGTVYYPTNAGGTVGAIAIVPGYTARQSSIKWWGPRLASHGFVVITIDTNSTLDQPSSRSSQQMAALRQVASLNGTSSSPIYGKVDTARMGVMGHSMGGGGSLISAANNPSLKAAAPQAPWDSSTNFSSVTVPTLIFACENDSIAPVNSSALPIYDSMSRNAKQFLEINGGSHFCANSGNSNQALIGKKGVAWMKRFMDNDTRYSTFACENPNSTRVSDFRTANCS
B3: unnamed (protein)
chain: MNFPRASRLMQAAVLGGLMAVSAAATAQTNPYARGPNPTAASLEASAGPFTVRSFTVSRPSGYGAGTVYYPTNAGGTVGAIAIVPGYTARQSSIKWWGPRLASHGFVVITIDTNSTLDQPSSRSSQQMAALRQVASLNGTSSSPIYGKVDTARMGVMGWSMGGGGSLISAANNPSLKAAAPQAPWDSSTNFSSVTVPTLIFACENDSIAPVNSSALPIYDSMSRNAKQFLEINGGSHFCANSGNSNQALIGKKGVAWMKRFMDNDTRYSTFACENPNSTRVSDFRTANCS
B4: unnamed (protein)
chain: MNFPRASRLMQAAVLGGLMAVSAAATAQTNPYARGPNPTAASLEASAGPFTVRSFTVSRPSGYGAGTVYYPTNAGGTVGAIAIVPGYTARQSSIKWWGPRLASHGFVVITIDTNSTLDQPSSRSSQQMAALRQVASLNGTSSSPIYGKVDTARMGVMGWSMGGGGSLISAANNPSLKAAAPQAPWDSSTNFSSVTVPTLIFACENDSIAPVNSSALPIYDSMSRNAKQFLEINGGSHSCANSGNSNQALIGKKGVAWMKRFMDNDTRYSTFACENPNSTRVSDFRTANCS
B5: unnamed (protein)
chain: MNFPRASRLMQAAVLGGLMAVSAAATAQTNPYARGPNPTAASLEASAGPFTVRSFTVSRPSGYGAGTVYYPTNAGGTVGAIAIVPGYTARQSSIKWWGPRLASHGFVVITIDTNSTLDQPSSRSSQQMAALRQVASLNGTSSSPIYGKVDTARMGVMGWSMGGGGSLISAANNPSLKAAAPQAPWDSSTNFSSVTVPTLIFAAENDSIAPVNSSALPIYDSMSRNAKQFLEINGGSHSAANSGNSNQALIGKKGVAWMKRFMDNDTRYSTFACENPNSTRVSDFRTANCS
B6: unnamed (protein)
chain: MNFPRASRLMQAAVLGGLMAVSAAATAQTNPYARGPNPTAASLEASAGPFTVRSFTVSRPSGYGAGTVYYPTNAGGTVGAIAIVPGYTARQSSIKWWGPRLASHGFVVITIDTNSTLDQPSSRSSQQMAALRQVASLNGTSSSPIYGKVDTARMGVMGHSMGGGGSLISAANNPSLKAAAPQAPWDSSTNFSSVTVPTLIFACENDSIAPVNSSALPIYDSMSRNAKQFLEINGGSHSCANSGNSNQALIGKKGVAWMKRFMDNDTRYSTFACENPNSTRVSDFRTANCS
B7: unnamed (protein)
chain: MDGVLWRVRTAALMAALLALAAWALWASPSVEAQSNPYQRGPNPTRSALTADGPFSVATYTVSRLSVSGFGGVIYYPTGTSLTFGGIAMSPGYTADASSLAWLGRRLASHGFVVLVINTNSRFDYPDSRASQLSAALNYLRTSSPSAVRARLDANRLAVAGHSMGGGGTLRIAEQNPSLKAAVPLTPWHTDKTFNTSVPVLIVGCEADTVAPVSQHAIPFYQNLPSTTPKVYVELDNASHFCPNSNNAAISVYTISWMKLWVDNDTRYRQFLCNVNDPALSDFRTNNRHCQCQ
B8: unnamed (protein)
chain: MDGVLWRVRTAALMAALLALAAWALWASPSVEAQSNPYQRGPNPTRSALTADGPFSVATYTVSRLSVSGFGGVIYYPTGTSLTFGGIAMSPGYTADASSLAWLGRRLASHGFVVLVINTNSRFDYPDSRASQLSAALNYLRTSSPSAVRARLDANRLAVAGWSMGGGGTLRIAEQNPSLKAAVPLTPWHTDKTFNTSVPVLIVGCEADTVAPVSQHAIPFYQNLPSTTPKVYVELDNASHSCPNSNNAAISVYTISWMKLWVDNDTRYRQFLCNVNDPALSDFRTNNRHCQCQ
B9: unnamed (protein)
chain: MDGVLWRVRTAALMAALLALAAWALWASPSVEAQSNPYQRGPNPTRSALTADGPFSVATYTVSRLSVSGFGGVIYYPTGTSLTFGGIAMSPGYTADASSLAWLGRRLASHGFVVLVINTNSRFDYPDSRASQLSAALNYLRTSSPSAVRARLDANRLAVAGHSMGGGGTLRIAEQNPSLKAAVPLTPWHTDKTFNTSVPVLIVGAEADTVAPVSQHAIPFYQNLPSTTPKVYVELDNASHSAPNSNNAAISVYTISWMKLWVDNDTRYRQFLCNVNDPALSDFRTNNRHCQCQ
B10: unnamed (protein)
chain: MDGVLWRVRTAALMAALLALAAWALWASPSVEAQSNPYQRGPNPTRSALTADGPFSVATYTVSRLSVSGFGGVIYYPTGTSLTFGGIAMSPGYTADASSLAWLGRRLASHGFVVLVINTNSRFDYPDSRASQLSAALNYLRTSSPSAVRARLDANRLAVAGHSMGGGGTLRIAEQNPSLKAAVPLTPWHTDKTFNTSVPVLIVGCEADTVAPVSQHAIPFYQNLPSTTPKVYVELDNASHSCPNSNNAAISVYTISWMKLWVDNDTRYRQFLCNVNDPALSDFRTNNRHCQCQ
B11: unnamed (protein)
chain: MDGVLWRVRTAALMAALLALAAWALWASPSVEAQSNPYQRGPNPTRSALTADGPFSVATYTVSRLSVSGFGGVIYYPTGTSLTFGGIAMSPGYTADASSLAWLGRRLASHGFVVLVINTNSRFDYPDSRASQLSAALNYLRTSSPSAVRARLDANRLAVAGWSMGGGGTLRIAEQNPSLKAAVPLTPWHTDKTFNTSVPVLIVGAEADTVAPVSQHAIPFYQNLPSTTPKVYVELDNASHSAPNSNNAAISVYTISWMKLWVDNDTRYRQFLCNVNDPALSDFRTNNRHCQCQ
B12: unnamed (protein)
chain: MDGVLWRVRTAALMAALLALAAWALWASPSVEAQSNPYQRGPNPTRSALTADGPFSVATYTVSRLSVSGFGGVIYYPTGTSLTFGGIAMSPGYTADASSLAWLGRRLASHGFVVLVINTNSRFDYPDSRASQLSAALNYLRTSSPSAVRARLDANRLAVAGWSMGGGGTLRIAEQNPSLKAAVPLTPWHTDKTFNTSVPVLIVGAEADTVAPVSQHAIPFYQNLPSTTPKVYVELDNASHFAPNSNNAAISVYTISWMKLWVDNDTRYRQFLCNVNDPALSDFRTNNRHCQCQ
B13: unnamed (protein)
chain: MDGVLWRVRTAALMAALLALAAWALWASPSVEAQSNPYQRGPNPTRSALTADGPFSVATYTVSRLSVSGFGGVIYYPTGTSLTFGGIAMSPGYTADASSLAWLGRRLASHGFVVLVINTNSRFDYPDSRASQLSAALNYLRTSSPSAVRARLDANRLAVAGHSMGGGGTLRIAEQNPSLKAAVPLTPWHTDKTFNTSVPVLIVGAEADTVAPVSQHAIPFYQNLPSTTPKVYVELDNASHFAPNSNNAAISVYTISWMKLWVDNDTRYRQFLCNVNDPALSDFRTNNRHCQCQ

Substrate: PEF
Assay: Proxy for plastic degradation [kcat] (s⁻¹)
Conditions: pH 9

First: B1
Second: B3
The “Proxy for plastic degradation” value of the first is lower: 0 for the first, 0.35 for the second.

Going from B5 to B6, the “Proxy for plastic degradation” value rises from 0 to 0.17.

Going from B7 to B8, the “Proxy for plastic degradation” value rises from 0.004 to 0.006.

First: B9
Second: B10
The “Proxy for plastic degradation” value of the first is lower: 0.085 for the first, 0.115 for the second.

Going from B11 to B12, the “Proxy for plastic degradation” value rises from 0.0175 to 0.033.

With B13 the “Proxy for plastic degradation” value was 0.005.

Substrate: PET
Assay: Proxy for plastic degradation [kcat] (s⁻¹)
Conditions: pH 9

Compared with B1, B3 is higher in “Proxy for plastic degradation” value: 0 for the first, 0.035 for the second.

Going from B5 to B6, the “Proxy for plastic degradation” value rises from 0 to 0.03.

First: B7
Second: B8
The “Proxy for plastic degradation” value of the first is lower: 0.0031 for the first, 0.0045 for the second.

First: B9
Second: B10
The “Proxy for plastic degradation” value of the first is higher: 0.035 for the first, 0.03 for the second.

Going from B11 to B12, the “Proxy for plastic degradation” value falls from 0.018 to 0.003.

For B13, the “Proxy for plastic degradation” value was 0.01.

Substrate: not listed separately
Assay: Proxy for plastic degradation [melting temperature]
Conditions: pH 7

Going from B1 to B3, the “Proxy for plastic degradation” value rises from 39.5 °C to 48.5 °C.

First: B5
Second: B6
The “Proxy for plastic degradation” value of the first is lower: 40.4 °C for the first, 48 °C for the second.

Compared with B7, B8 is higher in “Proxy for plastic degradation” value: 82 °C for the first, 82.5 °C for the second.

First: B9
Second: B10
The “Proxy for plastic degradation” value of the first is higher: 85 °C for the first, 83 °C for the second.

Compared with B11, B12 is higher in “Proxy for plastic degradation” value: 84.5 °C for the first, 84.9 °C for the second.

In the case of B13, the “Proxy for plastic degradation” value is reported as 85 °C.

Substrate: pNPB
Assay: Proxy for plastic degradation [kcat/Km (catalytic efficiency)] (mM⁻¹s⁻¹)
Conditions: pH 7

Going from B1 to B3, the “Proxy for plastic degradation” value rises from 2.1 to 3.3.

Compared with B5, B6 is higher in “Proxy for plastic degradation” value: 0 for the first, 45.8 for the second.

Compared with B7, B8 is lower in “Proxy for plastic degradation” value: 335 for the first, 2.8 for the second.

Going from B9 to B10, the “Proxy for plastic degradation” value falls from 175 to 125.

Going from B11 to B12, the “Proxy for plastic degradation” value rises from 28 to 67.

With B13 the “Proxy for plastic degradation” value was 398.

Substrate: pNPB
Assay: Proxy for plastic degradation [PET preference ratio] (% relative activity)
Conditions: pH 7

B1 and B5 are the same in “Proxy for plastic degradation” value: 0 for the first, 0 for the second.

With B10 the “Proxy for plastic degradation” value was 0.

Substrate: PEF
Assay: Proxy for plastic degradation [Released monomer concentration (HPLC/LC-MS) (FDCA + MHEF)] (s⁻¹)
Conditions: pH 9

Compared with B1, B3 is higher in “Proxy for plastic degradation” value: 0 for the first, 0.35 for the second.

Compared with B5, B6 is higher in “Proxy for plastic degradation” value: 0 for the first, 0.2 for the second.

Substrate: PET
Assay: Proxy for plastic degradation [Released monomer concentration (HPLC/LC-MS) (TPA+MHET+BHET)] (s⁻¹)
Conditions: pH 9

Going from B1 to B3, the “Proxy for plastic degradation” value rises from 0 to 0.037.

Compared with B5, B6 is higher in “Proxy for plastic degradation” value: 0 for the first, 0.03 for the second.

Substrate: PEF
Assay: Proxy for plastic degradation [kcat] (s⁻¹)
Conditions: pH 9; part of the chain shown

Going from B2 to B4, the “Proxy for plastic degradation” value rises from 0.08 to 1.02.

Substrate: PET
Assay: Proxy for plastic degradation [kcat] (s⁻¹)
Conditions: pH 9; part of the chain shown

Compared with B2, B4 is higher in “Proxy for plastic degradation” value: 0.013 for the first, 0.09 for the second.

Substrate: not listed separately
Assay: Proxy for plastic degradation [melting temperature]
Conditions: pH 7; part of the chain shown

In the case of B2, the “Proxy for plastic degradation” value is reported as 47.9 °C.

Substrate: pNPB
Assay: Proxy for plastic degradation [kcat/Km (catalytic efficiency)] (mM⁻¹s⁻¹)
Conditions: pH 7; part of the chain shown

Going from B2 to B4, the “Proxy for plastic degradation” value falls from 22.8 to 8.7.

Substrate: PEF
Assay: Proxy for plastic degradation [Released monomer concentration (HPLC/LC-MS) (FDCA + MHEF)] (s⁻¹)
Conditions: pH 9; part of the chain shown

Going from B2 to B4, the “Proxy for plastic degradation” value rises from 0.11 to 1.

Substrate: PET
Assay: Proxy for plastic degradation [Released monomer concentration (HPLC/LC-MS) (TPA+MHET+BHET)] (s⁻¹)
Conditions: pH 9; part of the chain shown

Compared with B2, B4 is higher in “Proxy for plastic degradation” value: 0.012 for the first, 0.075 for the second.
